Test results from paper PMC4864278.

Tests used:
[1] = target: TRIM32 extended RING domain (UniProt Q13049); assay: SAXS; batch SAXS, Diamond Light Source beamline B21; at least three dilutions of each construct; concentrations as in Table 2
[2] = target: TRIM32 extended RING domain (UniProt Q13049); assay: SEC-MALS; SEC-MALLS, Superdex 75 or Superdex 200 10/300 GL, 25°C, 20 mM HEPES pH 7.5, 100 mM NaCl (TRIM32) or 150 mM NaCl (TRIM25), 0.5 mM TCEP, 3 mM NaN3; samples run over a range of concentrations

Sequence of TRIM32 extended RING domain (from UniProt Q13049 1-93) (domain or fragment) (Q13049 1-93): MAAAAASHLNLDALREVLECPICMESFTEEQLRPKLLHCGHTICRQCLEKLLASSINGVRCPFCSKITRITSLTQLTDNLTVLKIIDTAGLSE

stoichiometry N [1]: 2
stoichiometry N [2]: 2
Substance: TRIM32 extended RING domain (from UniProt Q13049 1-93) (domain or fragment)
